According to publication PMC11503464, “Copper-61 is an advantageous alternative to gallium-68 for PET imaging of somatostatin receptor-expressing tumors: a head-to-head comparative preclinical study” (Frontiers in Nuclear Medicine, 2024):

Assays:
[1] = in vivo; parameters: species or system mice; details: BALB/c, mouse, total radioactivity
Experimental: (§1) [^64Cu]CuCl2 was provided by the University Hospital Tübingen, Germany. […] OLINDA/EXM 1.0 was used to integrate the fitted time-activity curves and to estimate the organ and effective doses using the whole-body adult female model. For all the calculations, the assumption was made that the mouse biodistribution, determined as the %IA/organ, was the same as the human biodistribution. The dosimetry estimates were performed as previously described ([14]).

[2] = in vivo; details: female, athymic nude-Foxn1^nu/Foxn1^+, mouse, 200 pmol, total radioactivity
[3] = Stability of labeling solutions at room temperature by radio-HPLC; type: physicochemical; details: labeling solution stored at room temperature
Experimental: An aliquot of DOTA-TOC or NODAGA-TOC (3–6 nmol, 1 mg/ml in TraceSelect water) was diluted in 0.25–0.30 ml ammonium acetate (0.5 M, pH 8), followed by the addition of [^61Cu]CuCl2 (30–150 MBq). The reaction mixture was incubated for 15 min at 95°C (DOTA-TOC) or at room temperature (NODAGA-TOC). The pH of the reaction mixture was between 5 and 6. Quality control was performed on a Shimadzu 2020 HPLC system connected to a Berthold radio detector (Flow Star 513).

[4] = type: physicochemical; details: pH 7.4, log D(O/PBS pH 7.4)
Experimental: Briefly, the radiotracer (10 µl, 1 µM) was added to 1 ml of a 1:1 pre-saturated mixture of 1-octanol and phosphate-buffered saline (PBS pH 7.4). The solution was vortexed for 30 min and then centrifuged at 3,000 rpm to achieve phase separation. Aliquots of 0.1 ml from each phase were collected and measured in a γ-counter. The distribution coefficient was calculated as the average of the logarithmic values (n = 3) of the ratio between the radioactivity in the organic and PBS phases. [^68Ga]Ga-DOTA-TOC was used as a reference.

[5] = parameters: species or system mice; details: mouse, in vivo
Experimental: as §1

[6] = tested on: HEK-SST2 cells; experiment: Cellular uptake and distribution on intact HEK-SST2 cells; type: cell-based, human; details: specific uptake, after 4 h at 37°C
Experimental: At the defined time points, the medium was removed, and the cells were washed twice with ice-cold PBS. The cells were then treated twice for 5 min with ice-cold glycine solution (0.05 M, pH 2.8) to detach the cell membrane-bound fraction (acid released). Afterward, the cells containing the internalized fraction were detached using NaOH 1 M at 37°C and collected for measurement. [^68Ga]Ga-DOTA-TOC was evaluated as a reference.

[7] = tested on: HEK-SST2 cells; experiment: Efflux from HEK-SST2 cells; type: cell-based, human
Experimental: The efflux was studied after 1 h incubation of the cells with the radiotracer at 37°C and the removal of the unbound fraction and the cell membrane-bound fraction, as described above (acid-wash). The cells were then incubated with fresh medium at 37°C either alone or with a competitor (1,000-fold excess of DOTA-TOC, 2.5 µM/well) for 10, 20, 30, 45, 60, 90, 120, 150, 180, and 240 min. At each time point, the efflux (or retention) was measured after the removal of the medium without or with the competitor and replacement with fresh pre-warmed (37°C) medium alone or with the competitor. At the end of the experiment, the cells were detached using 1 M NaOH at 37°C and collected to determine the remaining cell-associated radiotracer.

For `C[C@@H](O)[C@@H]1NC(=O)[C@H](CCCCN)NC(=O)[C@@H](Cc2c[nH]c3ccccc23)NC(=O)[C@H](Cc2ccc(O)cc2)NC(=O)[C@@H](NC(=O)[C@@H](Cc2ccccc2)NC(=O)CCC(C(=O)O)N2CCN(CC(=O)O)CCN(CC(=O)O)CC2)CSSC[C@@H](C(=O)N[C@H](CO)[C@@H](C)O)NC1=O` (some centres unmarked) [[64Cu]Cu-NODAGA-TOC, metal not drawn], the tissue uptake at 12 h ([1]; Adrenal uptake) was 0.32 ± 0.2 %ID/g, the tissue uptake at 24 h ([1]; Adrenal uptake) was 0.18 ± 0.1 %ID/g and the tissue uptake at 12 h ([1]; Femur uptake) was 0.11 ± 0.04 %ID/g. For the same compound, the tissue uptake at 12 h ([1]; Intestine uptake) was 0.57 ± 0.07 %ID/g, the tissue uptake at 24 h ([1]; Intestine uptake) was 0.31 ± 0.05 %ID/g and the tissue uptake at 12 h ([1]; Kidneys uptake) was 2.46 ± 0.85 %ID/g. For the same compound, the tissue uptake at 24 h ([1]; Kidneys uptake) was 0.66 ± 0.15 %ID/g, the tissue uptake at 12 h ([1]; Liver uptake) was 0.37 ± 0.09 %ID/g and the tissue uptake at 24 h ([1]; Liver uptake) was 0.26 ± 0.02 %ID/g. The tissue uptake at 12 h ([1]; Lung uptake) was 0.51 ± 0.12 %ID/g, the tissue uptake at 24 h ([1]; Lung uptake) was 0.27 ± 0.09 %ID/g and the tissue uptake at 12 h ([1]; Pancreas uptake) was 0.14 ± 0.03 %ID/g. For the same compound, the tissue uptake at 12 h ([1]; Pituitary uptake) was 0.48 ± 0.25 %ID/g, the tissue uptake at 24 h ([1]; Pituitary uptake) was 0.43 ± 0.29 %ID/g and the tissue uptake at 12 h ([1]; Stomach uptake) was 0.75 ± 0.19 %ID/g. The tissue uptake at 24 h ([1]; Stomach uptake) was 0.26 ± 0.04 %ID/g.
`C[C@@H](O)[C@@H]1NC(=O)[C@H](CCCCN)NC(=O)[C@@H](Cc2c[nH]c3ccccc23)NC(=O)[C@H](Cc2ccc(O)cc2)NC(=O)[C@@H](NC(=O)[C@@H](Cc2ccccc2)NC(=O)CN2CCN(CC(=O)O)CCN(CC(=O)O)CCN(CC(=O)O)CC2)CSSC[C@@H](C(=O)N[C@H](CO)[C@@H](C)O)NC1=O` [[^61Cu]Cu-DOTA-TOC, metal not drawn] gave a tissue uptake at 1 h ([2]; Adrenal uptake) of 2.05 ± 0.58 %ID/g, a tissue uptake at 4 h ([2]; Adrenal uptake) of 1.14 ± 0.5 %ID/g and a tissue uptake at 1 h ([2]; Blood uptake) of 0.38 ± 0.09 %ID/g. It also gave a tissue uptake at 4 h ([2]; Blood uptake) of 0.21 ± 0.04 %ID/g, a tissue uptake at 1 h ([2]; Bone uptake) of 0.6 ± 0.16 %ID/g and a tissue uptake at 4 h ([2]; Bone uptake) of 0.5 ± 0.19 %ID/g. The tissue uptake at 4 h ([2]; Heart uptake) was 0.49 ± 0.06 %ID/g, the tissue uptake at 4 h ([2]; Intestine uptake) was 2.06 ± 0.92 %ID/g and the tissue uptake at 1 h ([2]; Kidneys uptake) was 5.32 ± 0.58 %ID/g. It also gave a tissue uptake at 4 h ([2]; Kidneys uptake) of 2.33 ± 0.39 %ID/g, a tissue uptake at 4 h ([2]; Liver uptake) of 2.52 ± 0.56 %ID/g and a tissue uptake at 1 h ([2]; Lung uptake) of 1.96 ± 0.16 %ID/g. It also gave a tissue uptake at 4 h ([2]; Lung uptake) of 1.25 ± 0.08 %ID/g, a tissue uptake at 4 h ([2]; Muscle uptake) of 0.16 ± 0.08 %ID/g and a tissue uptake at 1 h ([2]; Pancreas uptake) of 4.29 ± 0.5 %ID/g. The tissue uptake at 4 h ([2]; Pancreas uptake) was 0.68 ± 0.07 %ID/g, the tissue uptake at 1 h ([2]; Pituitary uptake) was 3 ± 1.32 %ID/g and the tissue uptake at 4 h ([2]; Pituitary uptake) was 2.43 ± 1.27 %ID/g. It also gave a tissue uptake at 1 h ([2]; SST2-tumor uptake) of 7.44 ± 2.33 %ID/g, a tissue uptake at 4 h ([2]; SST2-tumor uptake) of 6.85 ± 2.48 %ID/g and a tissue uptake at 1 h ([2]; Spleen uptake) of 0.55 ± 0.08 %ID/g. It also gave a tissue uptake at 4 h ([2]; Spleen uptake) of 0.37 ± 0.09 %ID/g, a tissue uptake at 1 h ([2]; Stomach uptake) of 4.34 ± 0.5 %ID/g and a tissue uptake at 4 h ([2]; Stomach uptake) of 2.09 ± 0.5 %ID/g.
With `C[C@@H](O)[C@@H]1NC(=O)[C@H](CCCCN)NC(=O)[C@@H](Cc2c[nH]c3ccccc23)NC(=O)[C@H](Cc2ccc(O)cc2)NC(=O)[C@@H](NC(=O)[C@@H](Cc2ccccc2)NC(=O)CCC(C(=O)O)N2CCN(CC(=O)O)CCN(CC(=O)O)CC2)CSSC[C@@H](C(=O)N[C@H](CO)[C@@H](C)O)NC1=O` (some centres unmarked) [[^61Cu]Cu-NODAGA-TOC, metal not drawn] the “Radiochemical purity (%) 2 h” value ([3]; 2 h after end of synthesis) was 98 ± 1%, the “Radiochemical purity (%) 4 h” value ([3]; 4 h after end of synthesis) was 97 ± 1% and the tissue uptake at 1 h ([2]; Adrenal uptake) was 0.99 ± 0.17 %ID/g. The tissue uptake at 4 h ([2]; Adrenal uptake) was 0.67 ± 0.26 %ID/g, the tissue uptake at 1 h ([2]; Blood uptake) was 0.22 ± 0.04 %ID/g and the tissue uptake at 4 h ([2]; Blood uptake) was 0.04 ± 0.02 %ID/g. It also gave a tissue uptake at 1 h ([2]; Bone uptake) of 0.46 ± 0.17 %ID/g, a tissue uptake at 4 h ([2]; Bone uptake) of 0.31 ± 0.11 %ID/g and a tissue uptake at 1 h ([2]; Heart uptake) of 0.16 ± 0.04 %ID/g. It also gave a tissue uptake at 4 h ([2]; Heart uptake) of 0.07 ± 0.03 %ID/g, a tissue uptake at 1 h ([2]; Intestine uptake) of 0.92 ± 0.12 %ID/g and a tissue uptake at 4 h ([2]; Intestine uptake) of 0.65 ± 0.23 %ID/g. For the same compound, the tissue uptake at 1 h ([2]; Kidneys uptake) was 12.5 ± 2.25 %ID/g, the tissue uptake at 4 h ([2]; Kidneys uptake) was 4.36 ± 0.92 %ID/g and the tissue uptake at 1 h ([2]; Liver uptake) was 0.29 ± 0.04 %ID/g. The tissue uptake at 4 h ([2]; Liver uptake) was 0.27 ± 0.09 %ID/g, the tissue uptake at 1 h ([2]; Lung uptake) was 1.09 ± 0.2 %ID/g and the tissue uptake at 4 h ([2]; Lung uptake) was 0.51 ± 0.24 %ID/g. It also gave a tissue uptake at 1 h ([2]; Muscle uptake) of 0.16 ± 0.06 %ID/g, a tissue uptake at 4 h ([2]; Muscle uptake) of 0.07 ± 0.04 %ID/g and a tissue uptake at 1 h ([2]; Pancreas uptake) of 2.59 ± 0.49 %ID/g. It also gave a tissue uptake at 4 h ([2]; Pancreas uptake) of 0.6 ± 0.21 %ID/g, a tissue uptake at 1 h ([2]; Pituitary uptake) of 3.8 ± 1.35 %ID/g and a tissue uptake at 4 h ([2]; Pituitary uptake) of 2.97 ± 0.95 %ID/g. It also gave a tissue uptake at 1 h ([2]; SST2-tumor uptake) of 8.88 ± 3.19 %ID/g, a tissue uptake at 4 h ([2]; SST2-tumor uptake) of 7.39 ± 1.36 %ID/g and a tissue uptake at 1 h ([2]; Spleen uptake) of 0.22 ± 0.05 %ID/g. The tissue uptake at 4 h ([2]; Spleen uptake) was 0.1 ± 0.04 %ID/g, the tissue uptake at 1 h ([2]; Stomach uptake) was 2.34 ± 0.43 %ID/g and the tissue uptake at 4 h ([2]; Stomach uptake) was 1.22 ± 0.25 %ID/g. For the same compound, the logD [4] was -2.6 ± 0.24, the “Total absorbed dose, Adrenals” value [5] was 6.77 × 10^−3 mGy/MBq and the “Total absorbed dose, Brain” value [5] was 1.53 × 10^−5 mGy/MBq. The “Total absorbed dose, Breasts” value [5] was 2.14 × 10^−4 mGy/MBq, the “Total absorbed dose, Gallbladder wall” value [5] was 2.14 × 10^−3 mGy/MBq and the “Total absorbed dose, Heart wall” value [5] was 1.02 × 10^−3 mGy/MBq. The “Total absorbed dose, Kidneys” value [5] was 9.65 × 10^−2 mGy/MBq, the “Total absorbed dose, LLI wall” value [5] was 8.28 × 10^−4 mGy/MBq and the “Total absorbed dose, Liver” value [5] was 4.06 × 10^−3 mGy/MBq. For the same compound, the “Total absorbed dose, Lungs” value [5] was 1.67 × 10^−3 mGy/MBq, the “Total absorbed dose, Muscle” value [5] was 5.63 × 10^−4 mGy/MBq and the “Total absorbed dose, Osteogenic cells” value [5] was 6.57 × 10^−4 mGy/MBq. The “Total absorbed dose, Ovaries” value [5] was 1.19 × 10^−3 mGy/MBq, the “Total absorbed dose, Pancreas” value [5] was 2.23 × 10^−2 mGy/MBq and the “Total absorbed dose, Red marrow” value [5] was 1.07 × 10^−3 mGy/MBq. The “Total absorbed dose, Skin” value [5] was 2.42 × 10^−4 mGy/MBq, the “Total absorbed dose, Small intestine” value [5] was 1.12 × 10^−2 mGy/MBq and the “Total absorbed dose, Spleen” value [5] was 3.49 × 10^−3 mGy/MBq. For the same compound, the “Total absorbed dose, Stomach wall” value [5] was 5.34 × 10^−3 mGy/MBq, the “Total absorbed dose, Thymus” value [5] was 1.98 × 10^−4 mGy/MBq and the “Total absorbed dose, Thyroid” value [5] was 5.27 × 10^−5 mGy/MBq. For the same compound, the “Total absorbed dose, Total body” value [5] was 1.27 × 10^−3 mGy/MBq, the “Total absorbed dose, ULI wall” value [5] was 2.14 × 10^−3 mGy/MBq and the “Total absorbed dose, Urinary bladder wall” value [5] was 3.48 × 10^−4 mGy/MBq. The “Total absorbed dose, Uterus” value [5] was 1.03 × 10^−3 mGy/MBq, the “Cellular uptake (surface bound + internalized)” value [6] was 70.9 ± 3.5% and the “Efflux plateau in the absence of a competitor” value ([7]; after 2 h, 37°C, no further increase at 4 h) was “approximately 40%”. It also gave an Efflux with competitor ([7]; after 4 h at 37°C, DOTA-TOC (competitor) added to the medium) of 80%.
